Experimental data taken from patent US20230265175A1 (Merck Sharp & Dohme, published 2023).

How the values were obtained:
[1] = target: T1, tau species in African Green Monkey (AGM) CSF (African Green Monkey); experiment: competitive ELISA, fresh AGM CSF (75 µl of neat CSF); competitor biotinylated Ta1505-mIgG2a
T1 construct: also called Fresh African Green Monkey (AGM) CSF
Experimental: Binding affinities of various anti-tau-pS413 antibodies described herein for endogenous tau species were determined in brain homogenates and CSF samples from AD patients and preclinical models. Briefly, samples were pre-incubated with different concentrations of various anti-tau-pS413 antibodies, or respective isotype controls. Following a one-hour pre-incubation period, the antigen-antibody (Ag-Ab) mixture was added to plates pre-coated with a total tau capture antibody (Innotest ELISA kit).
Tissue homogenates were prepared using 1% sarkosyl buffer with several high-speed centrifugation steps to enrich for insoluble proteins including tau.

[2] = target: recombinant phosphorylated tau protein monomer (35 AWM); experiment: competitive ELISA, 35 AWM (1 ng); free tau-pS413 detected with biotinylated Ta1505-mIgG2a (competitor)

Row | EC50 [1] [nM] | EC50 [2] [nM] | Binder
1 | 2.08 | 6.73 | HmzTa1505-hIgG4-S228P (antibody) heavy: not shown light: DIVMTQSPLSLPVTLGEPASISCRSSQNIVHSNANTYLEWYLQKPGQSPQLLIYTVSNRFSGVPDRFSGSGSGTDFTLKISRVEAEDLGVYYCFQGSHLPLTFGGGTKVEIKRTVAAPSVFIFPPSDEQLKSGTASVVCLLNNFYPREAKVQWKVDNALQSGNSQESVTEQDSKDSTYSLSSTLTLSKADYEKHKVYACEVTHQGLSSPVTKSFNRGEC
2 | 0.008 | 0.055 | V8-AFM-hIgG1-LALA-YTE (antibody, also called V8-AFM-IgG1-LALA-YTE) heavy: EVQLVESGGGLVQPGGSLRLSCAASGFTFSSFALNWVRQAPGKGLEWVGHIRSETNNYVTFYAASVKGRFTVSRDDSQNTAYLQMNSLKTEDTATYYCVRRGPRDSWFGYWGQGTLVTVSSASTKGPSVFPLAPSSKSTSGGTAALGCLVKDYFPEPVTVSWNSGALTSGVHTFPAVLQSSGLYSLSSVVTVPSSSLGTQTYICNVNHKPSNTKVDKKVEPKSCDKTHTCPPCPAPEAAGGPSVFLFPPKPKDTLYITREPEVTCVVVDVSHEDPEVKFNWYVDGVEVHNAKTKPREEQYNSTYRVVSVLTVLHQDWLNGKEYKCKVSNKALPAPIEKTISKAKGQPREPQVYTLPPSRDELTKNQVSLTCLVKGFYPSDIAVEWESNGQPENNYKTTPPVLDSDGSFFLYSKLTVDKSRWQQGNVFSCSVMHEALHNHYTQKSLSLSPGK light: DIVMTQSPLSLPVTLGEPASISCRSSQKIVHRNANTYLEWYLQKPGQSPQLLIYTVSNRFSGVPDRFSGSGSGTDFTLKISRVEAEDLGVYYCFQGSYLPLTFGGGTKVEIKRTVAAPSVFIFPPSDEQLKSGTASVVCLLNNFYPREAKVQWKVDNALQSGNSQESVTEQDSKDSTYSLSSTLTLSKADYEKHKVYACEVTHQGLSSPVTKSFNRGEC
